According to US20230265192A1 (GIGAGEN, published 2023):
Blank lines part the entries; values can stand above or below the binder they belong to.

How the values were obtained:
[1] = molecular target: human CTLA-4 expressed on the cell surface (human, UniProt P16410 36-223); experiment: cell-based or functional assay
[2] = molecular target: T1, His-tagged cynomolgus CTLA-4 (CT4-C5227; Acro Biosystems) (cynomolgus, UniProt G7PL88 36-161); experiment: BLI (Octet)
T1 construct: also called soluble cynomolgus CTLA-4; cyno CTLA-4
T1 sequence (G7PL88 entry or part of it limits assumed, form in doubt): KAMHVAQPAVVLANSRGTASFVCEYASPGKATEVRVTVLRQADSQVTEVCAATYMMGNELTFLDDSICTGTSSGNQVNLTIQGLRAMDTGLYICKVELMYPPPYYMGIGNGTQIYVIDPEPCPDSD
Outline: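 Antibodies captured on anti-human IgG Fc (AHC) biosensors (Octet Red96); antigen analyte from 300 nM in 6 serial 1:3 dilutions. Kinetics from global fitting to a 1:1 binding model.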

CD27 on CHO cells = molecular target: T2, CD27 on CHO cells (UniProt P26842 20-260, limits assumed); experiment: flow cytometry, mixed CTLA-4+ and CD27+ CHO cells
T2 construct: whole, on cells; also called CD27+ CHO cells; irrelevant antigen (CD27)
T2 sequence (P26842 20-260 limits assumed): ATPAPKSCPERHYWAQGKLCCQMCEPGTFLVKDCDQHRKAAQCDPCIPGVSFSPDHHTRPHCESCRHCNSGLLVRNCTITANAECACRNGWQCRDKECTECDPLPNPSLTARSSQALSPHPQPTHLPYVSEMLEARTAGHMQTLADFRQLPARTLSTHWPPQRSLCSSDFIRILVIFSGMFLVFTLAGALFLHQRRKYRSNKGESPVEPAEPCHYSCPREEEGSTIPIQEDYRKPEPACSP
Protocol: To determine if the CTLA-4 mAbs bound the appropriate antigen expressed on the surface of mammalian cells, CHO cell lines stably expressing human CTLA-4 or an irrelevant antigen (CD27) were generated. Cells (0.5×10⁶ each cell line) were combined and washed with MACS buffer (Dulbecco's Phosphate Buffered Saline [DPBS], with 0.5% bovine serum albumin [BSA], and 2 mM ethylenediaminetetraacetic acid [EDTA]). The cells were incubated with 10 μg/mL anti-CTLA-4 for 30 min at 4° C., then excess, unbound mAbs were removed by washing twice with MACS buffer. The cells were then stained with PE-conjugated anti-Human IgG Fc antibody (clone M1310G05, BioLegend 410720, San Diego, Calif., USA) to detect bound anti-CTLA-4 and with fluorescein isothiocyanate (FITC)-conjugated anti-CD27 (clone 0323, BioLegend 302806, San Diego, Calif., USA) to distinguish the cells expressing the irrelevant antigen. Cells were washed twice with MACS buffer, fixed with 4% paraformaldehyde fixation buffer (BioLegend 420801, San Diego, Calif., USA) for 20 minutes at room temperature and washed twice more with MACS buffer. […] Binding of mAbs to CTLA-4 on the cell surface was determined using LSR II (BD Biosciences, San Jose, Calif., USA) or CytoFLEX LX (Beckman Coulter, Brea. Calif., USA) flow cytometers and analyzed using FlowJo (v10.6.1, BD Biosciences, San Jose, Calif., USA).

[3] = molecular target: T3, recombinant human CTLA-4-Fc (7268-CT, R&D Systems) (human, UniProt P16410 36-162); experiment: blocking ELISA, coated CTLA-4-Fc, competitor His-CD80
T3 construct: bought; also called rhCTLA-4-Fc; rhCTLA4-Fc; Fc part of the bought chimera not given
T3 sequence (P16410 36-162): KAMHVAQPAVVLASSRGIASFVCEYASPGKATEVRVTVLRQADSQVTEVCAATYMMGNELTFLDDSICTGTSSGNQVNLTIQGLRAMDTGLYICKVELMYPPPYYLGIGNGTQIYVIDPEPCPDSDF
Protocol: (§1) Table 24. […] Summary of blocking ELISA data from FIG. 13B. […] The data were then analyzed and fit by nonlinear regression.
(§2) ELISA plates (Nunc, MaxiSorp ELISA plates, flat bottom, uncoated, BioLegend, San Diego, Calif., USA) were coated with recombinant human CTLA-4-Fc (7268-CT, R&D Systems, Minneapolis, Minn., USA) at 1 μg/mL overnight at 4° C. Plates were then blocked with 5% milk in phosphate buffered saline with tween 20 (PBST) for 1 hour at room temperature. A titration series of the indicated mAbs was then added to the plates and then the plates were incubated for 1 hour at room temperature to allow mAb binding. Excess, unbound mAb was removed by washing with PBST. […] After incubation for 1 hour at room temperature, the plates were washed to remove unbound ligand. Bound ligand was detected with a horseradish peroxidase (HRP)-conjugated anti-His antibody (652504, BioLegend, San Diego, Calif., USA). After incubation for 1 hour at room temperature and washing, the plates were developed with 3,3′,5,5′-Tetramethylbenzidine (TMB) substrate (34028, Pierce, Waltham, Mass., USA). […] Absorbance at 450 nm was read using a Spectramax i3x plate reader (Molecular Devices. San Jose, Calif., USA). Half maximal inhibitory concentration (IC50) values were calculated by plotting absorbance versus the log of concentration using Prism (GraphPad, San Diego, Calif., USA).

[4] = molecular target: T3, recombinant human CTLA-4-Fc (7268-CT, …); experiment: blocking ELISA, coated CTLA-4-Fc, competitor His-CD86
Protocol: as §1, §2

Sequence of human CTLA-4 expressed on the cell surface (P16410 36-223 limits assumed): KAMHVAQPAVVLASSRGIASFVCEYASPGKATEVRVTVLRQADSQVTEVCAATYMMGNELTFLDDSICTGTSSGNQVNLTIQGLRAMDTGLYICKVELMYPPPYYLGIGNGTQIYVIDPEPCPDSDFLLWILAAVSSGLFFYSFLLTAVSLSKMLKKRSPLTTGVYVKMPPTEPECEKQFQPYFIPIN

Cell-based blocking activity EC50 [1]: 0.12 µg/mL
Cell-based blocking activity max signal (RLU) [1]: 413 RLU
Kd [2]: 3.1 nM
binding result (CD27 on CHO cells): no binding (tested: 10 µg/mL)
B1: antibody A2 (L2H2) (antibody, V domains shown)
VH: QVQLVESGGGVVQPGRSLRLSCAASGFTFSNYGMNWVRQAPGKGLEWVAVIWYDGRNKHYADSVKGRFTISRDNSKNTLYLQMNSLRAEDTAVYYCARGGDWGPYFDYWGQGTLVTVSS
VL: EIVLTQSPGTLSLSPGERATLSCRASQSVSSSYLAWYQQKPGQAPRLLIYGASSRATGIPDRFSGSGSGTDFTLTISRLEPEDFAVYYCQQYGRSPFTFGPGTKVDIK
notes: also called aCTLA-4.4; CTLA4.A2

Cell-based blocking activity EC50 [1]: 0.18 µg/mL
Cell-based blocking activity max signal (RLU) [1]: 548 RLU
Kd [2]: 2.2 nM
IC50 [3]: 0.12 µg/mL
IC50 [4]: 0.12 µg/mL
binding result (CD27 on CHO cells): no binding (tested: 10 µg/mL)
B2: antibody A5 (L5H5) (antibody, V domains shown)
VH: QVQLVESGGGVVQPGRSLRLSCAASGFTFSSYGMHWVRQAPGKGLEWVAVIWYDGNNKYYADSVKGRFTISRDNSKNTLYLQMYSLRAEDTAVYYCARGGILAAGIFDYWGQGTLVTVSS
VL: EIVLTQSPGTLSLSPGDRATLSCRASQSGSSSYLAWYQQKPGQAPRLLIYGASSRATGIPDRFSGSGSGTDFTLTISRLEPEDFAVYYCQQYGTSPFTSGPGTKVDIK
notes: also called aCTLA-4.28; CTLA4.A5

Cell-based blocking activity EC50 [1]: 0.17 µg/mL
Cell-based blocking activity max signal (RLU) [1]: 63 RLU
Kd [2]: 0.75 nM
binding result (CD27 on CHO cells): no binding (tested: 10 µg/mL)
B3: antibody A7 (L7H7) (antibody, V domains shown)
VH: QVQLVESGGGVVQPGRSLRLSCAASGFTLSSFGMHWVRQAPGKGLEWVAVIWYDGSNKYYADSVKGRFIISRDNSKTALYLQMNSLRAEDTAVYYCARAHYFGAFDIWGQGTMVTVSS
VL: not shown
notes: also called aCTLA-4.3; CTLA4.A7
